Test results published in a protein production outcome set (Wang et al. 2014).

experiment: label from the status in PepcDB records

Row | Sequence | protein production
1 | MRTRWLPRGRGLGSASARLRSAVAGRGTVRAELGYGAFLSYSGERDRRWLPQLRHAIEKQSRPWYKPPHIRVFLDKTGVSIGPELWGKIEAGLARSDWLVVLASPEARASVWVDREIAWWLEHKSVHTILLVVTAGQLVWDEERGDWDPERSTALPARLAGKFERQPVWKSVDPRPDGDAVFSTDDAGFSPDVDGVAFGVASVVRGLSEDELRSEGLRDTRRNLRTARIVATALGCLLLVASTLSVVAVLSRAEATRQRDQAVVQQLITQSSLLAERDPFAARLKALAAWRIDPSPETRFAVLDAAVNPASGVLSHSVPVDSVAFSPDGRTVASGGSDGVVRIWRTGTQRTAGRPLIGHHQGITSIAFAPDGRTLASSGFDGTVRLWDLADRTQIGAPFNAGAGSVRSVAFGRDGRTLVTVDEADSGTVRVWDVATHRQTGHPLDGPGPVLGTNADGSRVGSSTSQGGIRLWDTASGAPAGGALKGGDGVVTALSFSSDGKTFATADLVGNLRLWDIEARAPVGEPIASPATSTGVRAITFSPDGAMLAAAYEGGGVRLWDLRRRAQVGGPLLAHTSTVESVAFSPDGSVLASASADTTVRLWDVRTLRQAGAPIDTGGKGAAALSPDGRSLAVVDSEQAVRLWDVVARRRVGEPLVRGVYSFSPSLAFRADGAVLAIGADGLRLREVATRRPVGEPLLGTGDVGALSFGPDGRTLVSGGPDSVHVWDLTARPPTGTALGPRSVGVALSPDGRSLATTTQDDTVVFWDMATRRRIGETPGDHTAQITAVAWSPDGTTLATAGRDDTVRLWDAATRERIGAPLRGHHGGLTSVVFSPDGATLATGGNDHTVRLWDVATERPIGAPLEGHGAGVTGVAFTPGGDTLVSWAQDGTARLWNVAATVDPVRSLCAWADGAFTTDRWHEDVPAGPASRTLCRK | failed
2 | MRTSGGQMNISSATLANTQRTIDSYEGCADDYSRIVDQFPWPSLEAALRQVATAAGKGGQILEIGSGAGWDADFLETQGVSVRRTDATRRFLELQAARGKKGELLNVITDDLGGPYDAVVALCVLIHAPRDQTGPVLEKIVAALRPGGVFLVSMRDGDGETSGAYHMSYWRRDDFALCIKEAGLALEWDAHRVNRDGDGWHTFYARRPE | failed
3 | MRTSRVLAGILAATLTVSLAACSQDSSETSSNSSSAASQSSDVSNEAFPVTIEHAFGETTIESKPERIATVGWSNHEVPLALGVTPVGFEKVTWGDDDNNGILPWVEETLSKLGSDEPVLFDATDSIPFEEIANTAPDVILASYSGITQEDYDQLSQIAPVVAYPEIAWGTSLDEMIEMNSKAIGLEQEGKDLIADLDAEVASAIDANPELKDAKPVFAFFDESDFSQIGVYTSIDPRMSFLLDAGVQEASVLKEHSSPDSFYEQVSAENPETFDDVDVIITYGTEDDAANAELLSKMQADPLLSRIPAIAEGKVVFLGANPLAASANESPLSIPWGINDYFAKLAEPLK | failed
4 | MRTWKMRKDGQRIDYLGRKWRNLGGPFMEVSRVVTWIIIITLVALAIKTILPFFSPLFFAFITAYALYPLHIKLKERIGSKNSAILLTLFLLLGALMILLILVYTLTPVIGQAYDYLTNLEKIKINIPLVPKSVISSLEGVIDEFIERGKGYLVSLTFSVPKYLLQVIVYLTFVYFFLVKEKEARELITFEDEKLIRIIERGNLTLQALIRVWLLLNIVKGILMTLGFLIFKVSNLPTAILAGLLTVLFSFIPLFEGWMIWLAGAFYLVKQGHIIAGIGLAVYGFTLVSPLPDFTIRPKLVAREAEFNDVLVLIGMIGGTWGLGLKGLIIGPIVLNVAIEMLREWKNVQAKTERS | failed
5 | MRTYLVLFSILLVFLAGCISTESKVEDTTTAVTFVSVTDFTGETSTINSPVERVVSNYGLIPPIIYLFGEGDKIVAGRGVMGADEFIDAVDPEFKTRSKDIKSDNVEEIKSLNPDVIFAPSWGSQQGQYPQLKSLGIPVVFIDIETASNYYKTIEMMGEVFQKEAYAQELIDYYNQSTNDVLKRTASISENEKPRVLFLVYDQRKNSYWTPGGEFYQNNLITMAGGKTVSSDLPTGKAQINVEQAASWNPDVIITSAHTMEYPSTKVKEDVLTDEGWKEINAVKSGNVYAMPFDGESWDTLGSKYVLGLYWTAKTLHPDMYTDVDILNLTSSEYERFFNVSIDEVTLVGDNIE | failed
6 | MRVALAGRPQEALDVALPAAELPEHLRWRLRSWQADAQEALGQSAEATLLYAEAAHLAAGLNRAVMLQEQAALLLQQGDFEEARQVLERARTLYTGPRPGTDPNDEGLNLATWHYLMAQVRLNLGQPEAAQDDIREAARLEGLSGDPSYGVALVQGQVLSHLGQLEEALEAFGQALARATDPDRPYANHELGVALLDLDRPLEAREKLEEVLLVPDYPFHPEVLADIAECDYRLGRLPEAQLAAEQALNQGAVVPASVVLGNVALDYYHLDDALDHYERVVREAVHGSRDWVLGHQMAADVMAQQGFPDPAAAYAHAQQALEHTPESDDWYVTLQDHLSRAQALMGSAGGRTLN | failed
7 | MRVALTIAGSDSGGGAGVQADLKVFFRFGVYGTSALTLVTAQNTLGVQRVHLLPPEVVYAQIESVAQDFPLHAAKTGALGDAAIVEAVAEAVRRFGVRPLVVDPVMVAKSGDPLLAKEAAAALKERLFPLADLVTPNRLEAEALLGRPIRTLKEAEEAAKALLALGPKAVLLKGGHLEGEEAVDLLATRGGVLRFSAPRVHTRNTHGTGCTLSAAIAALLAKGRPLAEAVAEAKAYLTRALKTAPSLGHGHGPLDHWA | not failed
8 | MRVASDAGDAETLLAAVPANQRVAIVDARFVGHLHALRLGLTDPRFEAAALAGAVSAQPGARQALTRALARESSAATGGATVVMDNLAERITAALDADGVQVHRPDLGTLVAAVPADPQARNEVRQAVTAVDDEAVRLRTAVKSRDGFFTTHFISPYSRYLARWCARRGLTPNQVTTASLLTALVAAGCAATGTRAGFVAAGLLLLFSFVLDCADGQLARYSLQYSTLGAWLDATFDRAKEYAYYAGLALGAARGGDDVWALALGAMVLQSCRHIVDFSFNEANHDATANTSPTAALSDKLDSVGWTVWLRRMIVLPIGERWAMIAVLTALTTPRITFYALLIGCAFAATYTTAGRVLRSLTRKARRTDRAAQALADLTDSGPLAEFLTRFARRLRLRGPACVALVTGALVVLAAALAPYGSWWPVLAAVTYVLLSPVALLKPLKGALDWLVPPFYRAAEYGTVLVLAAKADVNGALPAAFGLVAAVAYHHYDTVYRIRGNAGAPPHWLVRAIGGHEGRTLLVTVLAALLVPTDFKVALTALAVAVALVVLVESIRFWVSSQAPAVHDEGEPA | failed
9 | MRVDLNSDLGESFGRYKLGLDEEVMKYITSANVACGWHAGDPLVMRKTVRLAKENDVQVGAHPGYPDLMGFGRRYMKLTPEEARNYILYQVGALYAFAKAEGLELQHVKPHGALYNAMVKEEDLARAVIEGILDFDKDLILVTLSNSRVADIAEEMGLKVAHEVFADRAYNPDGTLVPRGRPGAVIEDKEEIAERVISMVKDGGIRAINGEWVDLKVDTICVHGDNPKAVEITSYIRKVLEEEGVKIVPMKEFIR | not failed
10 | MRVFFSTLAGLALALAAGGAVASGLGDADKGREVFRQCAFCHAVGEGAENGIGPHLNGVFGRAAGRIEGVQYSKSMIRMGNDGLIWTAQTLDAYIENPRALVSKTRMSFRGIKNEQERSDLMAYLRRYSDDPGNIPEAEPTATGTDHDLDPVILAIQGDPEYGEYLASECKTCHQTSGANDGIPGITQWPTEDFVVAMHAYKRKLRPHPVMQMMAGRLSNDEIAALAAYFQDLE | failed
11 | MRVFLLLFLLFPVLELFLLVRVGMSIGFLWTFLLVVATSMLGLFVMRVAGFATALRARESLARGELPAQEMLEGLMVAVGGGLLLLPGFISDILGVICLLPITRRLLISKVRRRAEDQAMRQRAFADDLQTQANQGPASHRPNAIHQPTREPDVIEGEFEHRDK | failed
12 | MRVFPVYAPKLIVKHARIFLTGVIWVKDLGRLEFEKGRFLLPRKSLPKVKQAILELNELIEAQNHQTKTALEHHHHHH | not failed
13 | MRVISGEYGGRRLKALDGDNTRPTTDKVKESIFNMIGPYFDGGMALDLYSGSGGLAIEAVSRGMDKSICIEKNFAALKVIKENIAITKEPEKFEVRKMDANRALEQFYEEKLQFDLVLLDPPYAKQEIVSQLEKMLERQLLTNEAVIVCETDKTVKLPETIGTLKKTRETVYGITQVTIYRQEA | not failed
14 | MRVLFIGDVFGQPGRRVLQNHLPTIRPQFDFVIVNMENSAGGFGMHRDAARGALEAGAGCLTLGNHAWHHKDIYPMLSEDTYPIVRPLNYADPGTPGVGWRTFDVNGEKLTVVNLLGRVFMEAVDNPFRTMDALLERDDLGTVFVDFHAEATSEKEAMGWHLAGRVAAVIGTHTHVPTADTRILKGGTAYQTDAGFTGPHDSIIGSAIEGPLQRFLTERPHRYGVAEGRAELNGVALHFEGGKATAAERYRFIED | not failed
15 | MRVLILGSGVIGTTSAWYLSKAGCEVVVVDRQSGAGLETSYANGGQLSFGYTSPWAAPGVPLKAVRWLFERHAPLSIRPTTDWNQYVWLARMLRHCSAERYAVNKSRMLRLSEYSREALEALSAETGITFEGRRLGTIQLFRTQQQLDGAVRDIELLTQYGIPYEVLSPHQLAKFEPGLADGSVRFVGALRLPHDQTGDCCLFTQRLAALAAKRGVEFRYGCTVQRLEVDGPRVTGAWINGALERADCCVVALGSYSPLLLAPLGLRLPVYPLKGFSLTLPMIDASRAPVSTVLDESYKVAVTRFDERIRVAGMAEVSGYDVSLNPRRRSTLEMVVQDVYPGCGDLGRGEFWTGLRPATPDGTPVIGATPYQGLFLNTGHGTLGWTMSSGSGRYLADLICCRPCEISSEGLDMFRYLVSTIPCPQECAPCVPPTP | failed
16 | MRVLKKFFSGDNLLERVLILIVGLVASLILVIKSADLFVDNLVDLGSSLGISEVILGVTASAIGTSLPEFGSALIASLSGSTDIGVGCVIGSNIWNIAGILGISSVVAGIIETNADGLKRDFSATLVTGLILLFFMFFGNIGKIAALVMVLTYAVYLWRLIKAQKTYSDENSGKNEREPLDLKKLALTVVGFAGLVIGCRILVYTGVELADIAGIPAMIMGLFTLAIGTSIPELVVTLSSAVKGLHELSIGTVLGSNTFNILVGIGVPALIAPVPVERLSLTFDAPVMILVTVLLVLLIRQGDMKLKRTGGIVLLAVYISYVIMRLFVLA | failed
17 | MRVPALKPILLQLHSVAGLVLAAVLVLVALTGAVMSFEDEIRGALDAGRVQLAPHAGSRMPLDALIAKLQAGGDPVASITMPRSAASAAEVRFARKPDHTRPAPLYLDPYTGESLGHPAADAFFATVRKLHRWLLLPGDGNGYGRTITGVAALGLLAMLLTGLVLRWPHRPGSIKVWLKPHWQLRGRGLHRSLHAVIGTWVLLLYLIMTLTGLWWSFDWYKTAATWLLARSPVTMQPPNRAAVTAAPSAAISLDRVWATLVAERGDRFEAARLTLPSGREGTVRVRAWLTDARDGAHDEFRIDGRSGQVLSADIYADKTIGEKVLARVLDIHRGSIFGWPGQLLFMLAAAAMPLFGVTGVLLYLSRRRHQRMQRAARAKVG | failed
18 | MRVTHFFMAAIAVVFVLAGCSTMPKKPDSLTRGDYGYTKEYVSWLIKKEMRENDVTGLSIALVDDQRVVWAQGFGVADEANKVPATPDTIYRVGSISKLFTATAVLQLAEQGKMDIDKPLSTYLPEFSVKSRFPDAGPITPRTLMTHHSGLPSDFLKGMWTNNPEPISNVVNLLKDEYAQYPPNFVFSYSNLGVSLLGNAVERIAGRPYASQIDETVLHPLGMASSSFSTHSDVASRLAKGYRNGKEIGEPQLRDIPAGGLHTNVLDLSRFMEMVFAGGKAGERRILKEETLAEMLSPQNDGVPLDHDFHIGLGWLLTDVGIENAGKVAWHDGATLLYRSQMVILPEQKLGVVVLSNSATAASVVHKVATEALKLAMEAKAGIRQPERSKPVEREADLSPEERQKLAGAYVTPFGTVKVIESGTTLRTEFFGKTFSVVPRNDGRMGLRYRLLGVIPISLGDLDYLGFSTSTVSGHNVLLATAAGKSMLVGEKMEPVLVSEQWQRRVGAYEIANPGDDTMLVDDIRLRYEDGFLRVDYALPLFFDGKLNVSLQPLSDTEAVIRGLGRGMGETIRVVAVNGEEMLQYSGYLLKKKRE | failed
